Source: patent publication US20160213771A1

Target: CXC chemokine receptor 2 (CXCR2) (UniProt P25025)
Experiment: cell-based or functional assay

Chain of UniProt P25025 (P25025 whole entry): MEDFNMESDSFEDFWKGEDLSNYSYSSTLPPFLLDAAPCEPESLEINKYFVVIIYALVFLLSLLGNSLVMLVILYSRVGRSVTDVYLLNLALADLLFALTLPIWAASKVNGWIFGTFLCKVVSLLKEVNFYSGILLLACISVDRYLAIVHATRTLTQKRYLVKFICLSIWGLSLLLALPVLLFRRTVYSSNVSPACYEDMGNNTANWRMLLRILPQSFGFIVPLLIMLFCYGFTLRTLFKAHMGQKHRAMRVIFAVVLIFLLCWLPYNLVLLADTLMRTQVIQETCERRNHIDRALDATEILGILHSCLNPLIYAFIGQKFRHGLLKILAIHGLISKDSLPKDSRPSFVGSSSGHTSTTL

| Substance | chemotactic response in Transwell migration assays |
| --- | --- |
| IL-8 (from UniProt P10145 28-99) (ligand) | > 500% |
| UL146 (ligand) | > 500% |
